Source: the supplement of paper PMC10567573

B1: CDKL4 (parent)
chain: AVKKFVESEDDPVVKKIALREIRM
B2: ZBED1 (parent)
chain: EQVFSLGDGVSGGFFGIRDSSFL

Variants of: B1
Experiment: protein stability index of a GFP-peptide fusion (GPS, HEK-293T) (PSI 1-6); higher = more stable
Conditions: c terminus: a fixed tail appended
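Further: lentivirally expressed fusions sorted by FACS into six bins by GFP to DsRed ratio, PSI derived from sequencing read proportions per bin multiplied by bin number.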

Protein stability index of substitutions, site by site:
K4: N 2.92 | E 3.55 | Y 2.25 | W 2.43 | T 3.25 | I 1.88 | D 4.07 | M 2.34 | V 2.55 | Q 3.17 | C 2.6 | P 4.01 | L 2.49 | F 2.13 | G 3.5 | R 2.7 | S 3.15 | H 2.88 | A 3.07
P12: A 3.04 | T 2.76 | C 3.05 | V 2.48 | S 2.99 | L 2.55 | N 3.08 | K 3.23 | H 2.77 | Y 2.18 | F 2.66 | Q 2.45 | G 2.57 | R 3.46 | I 2.52 | D 3.22 | E 3.88 | M 1.95 | W 1.82
K3: D 3.23 | W 2.35 | M 2.28 | R 3.39 | N 3.45 | F 1.76 | G 2.74 | I 1.91 | A 2.83 | L 2.34 | P 3.02 | V 1.95 | Q 3.04 | C 2.66 | Y 2.28 | S 3.23 | E 3.72 | H 3.6 | T 2.86
K15: C 2.52 | P 3.46 | N 2.88 | E 3.44 | A 2.26 | I 2.4 | F 2.58 | D 3.59 | M 1.87 | L 1.95 | H 3.14 | G 2.82
D10: P 2.72 | F 1.77 | V 2.23 | A 2.58 | R 3.15 | Y 1.84 | I 1.81 | T 2.78 | W 2.16 | G 3.07 | K 2.68 | N 2.91 | L 1.68 | E 2.99 | H 2.82 | S 2.83 | M 2.65 | C 2.15 | Q 2.8
V14: W 2.65 | S 2.98 | K 2.82 | M 2.69 | I 2.56 | A 3.01 | Q 3.71 | E 4.1 | C 3.74 | D 3.48 | Y 2.54 | F 2.01 | H 3.38 | N 3.5 | G 2.97 | T 3.26 | P 3.12 | L 2.89 | R 3.44
D11: M 2.44 | H 2.96 | C 2.16 | E 3.15 | R 2.61 | T 3 | K 3.22 | A 2.61 | S 2.87 | Q 2.81 | G 1.8 | V 2.44 | P 2.81 | L 1.81 | I 2.58 | W 3.34 | N 3.19 | F 2.25 | Y 2.46
V13: P 3.29 | I 2.83 | H 3.11 | K 3.27 | S 3.48 | G 3.54 | T 3.77 | L 2.93 | N 3.28 | W 2.49 | Y 2.3 | A 3.23 | D 3.67 | E 3.35 | F 2.5 | R 3.08 | C 2.67 | M 2.73 | Q 3.47
V6: C 2.82 | L 3.23 | R 2.48 | G 3.33 | Y 2.57 | P 3.78 | H 3.08 | A 3.07 | W 2.57 | F 2.1 | E 3.72 | Q 3.42 | N 3.6 | S 3.17 | I 1.93 | D 3.65 | T 3.16 | M 3.23 | K 3.26
E9: S 2.97 | M 1.76 | Y 1.74 | L 1.64 | N 2.56 | H 2.71 | D 2.69 | I 2.51 | P 2.34 | Q 3.19 | T 3.02 | R 2.51 | A 2.4 | W 2.38 | F 2.09 | C 2.23 | G 2.43 | V 2.48 | K 2.69
E7: S 3.04 | Q 2.54 | D 2.71 | W 2.14 | G 1.99 | V 2.54 | P 2.97 | K 2.61 | L 1.97 | M 2.43 | I 2 | R 2.52 | C 2.36 | F 1.94 | T 2.52 | A 2.99 | H 2.18 | Y 2.32 | N 3.19
V2: R 2.85 | F 2.52 | W 2.1 | D 3.71 | N 3.63 | M 2.79 | L 3.7 | I 2.31 | E 4.01 | S 3.51 | P 3.74 | C 2.85 | Q 3.56 | A 3.8 | G 3.82 | T 3.35 | Y 2.52 | H 3.03 | K 3.55
F5: K 3.55 | H 3.24 | R 3.63 | S 4.46 | M 3.33 | T 4 | Q 3.01 | G 4.28 | C 4.34 | N 3.14 | D 3.75 | V 3.81 | W 2.47 | P 4.07 | L 2.98 | E 3.94 | I 2.94 | Y 3.46 | A 3.66
S8: T 3.14 | F 2.08 | D 3.12 | E 3.07 | C 2.54 | R 2.43 | Q 3.27 | Y 3.17 | V 2.64 | W 2.24 | P 2.7 | N 3.32 | M 3.04 | L 1.91 | H 3.02 | G 2.68 | A 2.92 | I 2.54 | K 3.15
A1: Q 3.3 | N 3.38 | G 3.63 | L 1.99 | H 2.59 | R 2.45 | C 2.48 | W 2.72 | M 2.69 | V 2.43 | Y 2.2 | D 3.75 | P 3.17 | F 2.21 | S 3.94 | K 2.91 | E 3.85 | T 3.1 | I 2.16

Variants of: B2
Experiment: as above
Conditions: c terminus: native

Protein stability index of substitutions, site by site:
L23: R 3.35 | E 4.54 | A 2.42 | T 3.33 | P 3.92 | C 3.34 | F 2.63 | M 3.67 | N 3.94 | Q 3.98 | K 4.35 | H 3.9 | S 3.25 | Y 2.61 | V 3.19 | W 2.66 | G 1.56 | D 3.96 | I 2.99
F22: M 3.49 | R 3.61 | S 3.79 | L 3.41 | W 3.73 | E 4.08 | G 4.14 | Q 4.24 | Y 3.33 | C 3.39 | N 4.22 | K 2.39 | H 4.5 | D 4.06 | V 3.35 | I 3.04 | T 4.07 | P 3.43 | A 4.15
S21: C 2.77 | M 2.54 | H 3.46 | Q 3.48 | W 2.59 | K 4.02 | F 2.61 | I 2.25 | T 3.33 | E 3.67 | D 4.08 | R 3.61 | V 1.74 | G 3.84 | P 3.4 | L 2.5 | N 3.62 | Y 2.66
